The source of these data is paper doi:10.1101/2021.03.10.433854.

Test in all cases: SPR
(In SPR one partner is held on a chip, and binding of the other changes the refractive index at the surface.)

Assay [1] has as its target catalytic domain of human AURKA (amino acids 122-430) (human).
Assay [2] has the same target. This is another data set of the same source.
The target is the same in assay [3]. This is another data set of the same source.

Several values for one entry are separate records, joined by “and”; a condition that tells them apart may be missing. Equal values may be shown once. Read-outs that look alike come from different tables or passages of the source. A value given as a limit tells only on which side of the number the result lay.

Usually Kd stands for a measure of binding affinity in units of concentration. Read a high Kd as lower affinity. By koff is commonly meant a measure of how fast the partners let go of each other. A high value points to fast dissociation. In general, kon refers to the second-order rate constant of association. Read a low kon as slow association. On to “AURKA interacting region (AIR) of N-Myc (N-Myc residues 61-89) (from UniProt P04198 61-89) (peptide)”, for which the Kd in assay [1] is 690 nM and 4000 nM. In assay [2], this substance gave a Kd of 990 nM, an off-rate constant (koff) of 0.0659 s⁻¹ and a kon of 63000 M⁻¹ s⁻¹. The same substance came in with a Kd in assay [3] greater than 15000 nM.
